Experimental data as given in patent US20090036365A1 (DYAX, published 2009).
Where a chain is given by its changes, count along the chain named.

B1: SPI08 (designed binder)
chain: MHSFCAFKADGGPCRARFERFFFNIFTRQCEEFIYGGCEGNQNRFESLEECKKMCTRD
notes: also called isolate 08
B2: SPI15 (designed binder)
chain: B1 chain with D10E, G11S, E19D, F21W
notes: 41 for the whole domain; 90 for the printed residues 10-21; also called SP115; isolate 15
B3: SPI16 (designed binder)
chain: B1 chain with D10E, G11V, P13A, R15K, A16G, E19H, F21W
notes: 110 for the printed residues 10-21
B4: SPI05 (designed binder)
chain: B1 chain with D10E, G11S, R17K, E19A
notes: 105 for the printed residues 10-21
B5: SPI03 (designed binder)
chain: B1 chain with G11S, R15K, E19D, F21W
notes: 108 for the printed residues 10-21
B6: SPI54 (designed binder)
chain: B1 chain with G11S, E19D, F21W, E31T, E32R, I34P, E39G
B7: SPI21 (designed binder)
chain: B1 chain with G11S, P13A, R15K, A16G, R17K, F21W
notes: 116 for the printed residues 10-21
B8: SPI11 (Selected Plasmin Inhibitor#11) (designed binder)
chain: B1 chain with D10E, G11T, E19D, F21W
notes: also called isolate 11
B9: SPI43 (designed binder)
chain: MHSFCAFKAETGPCRGKFDRWFFNIFTRQCESFHYGGCKGNQNRFESLEECKKMCTRD
B10: QS4 displayed on gIIIp of M13 (designed binder)
chain: B1 chain with G11D, R15K, E32Q, I34Y, E39D
notes: also called phage that display the LACI-K1 derivative QS4
B11: SPI22 (designed binder)
chain: B1 chain with R15K, A16G, R17K, E19P
notes: also called isolate 22
B12: SPI17 (designed binder)
chain: B1 chain with D10E, G11V, F18I, E19Q
notes: 104 for the printed residues 10-21
B13: SPI01 (designed binder)
chain: B1 chain with G11S, P13A, R17M, E19H
notes: 112 for the printed residues 10-21
B14: SPI51 (designed binder)
chain: B1 chain with G11A, R17K, E31T, E32A, I34F, E39G
B15: SPI02 (designed binder)
chain: B1 chain with G11S, A16G
notes: 102 for the printed residues 10-21
B16: SPI47 (designed binder)
chain: B1 chain with G11A, R17K
B17: SPI23 (designed binder)
chain: B1 chain with D10E, R17K, E19Q, F21W
notes: also called isolate 23
B18: QS4, yeast-expressed soluble protein (designed binder)
chain: EAAEMHSFCAFKADDGPCKARFERFFFNIFTRQCEQFYYGGCDGNQNRFESLEECKKMCTRD
notes: Expressed in S. cerevisiae from a mat alpha fusion, purified on trypsin-agarose; also called QS4 variant

How the values were obtained:
human plasmin [1] = biological target: T1, human plasmin (human, UniProt P00747 97-810, limits assumed); assay: binding of clonally pure display phage to plasmin relative to BPTI display phage
T1 construct: also called plasmin-beads; plasmin-agarose beads
T1 sequence (P00747 97-810 limits assumed): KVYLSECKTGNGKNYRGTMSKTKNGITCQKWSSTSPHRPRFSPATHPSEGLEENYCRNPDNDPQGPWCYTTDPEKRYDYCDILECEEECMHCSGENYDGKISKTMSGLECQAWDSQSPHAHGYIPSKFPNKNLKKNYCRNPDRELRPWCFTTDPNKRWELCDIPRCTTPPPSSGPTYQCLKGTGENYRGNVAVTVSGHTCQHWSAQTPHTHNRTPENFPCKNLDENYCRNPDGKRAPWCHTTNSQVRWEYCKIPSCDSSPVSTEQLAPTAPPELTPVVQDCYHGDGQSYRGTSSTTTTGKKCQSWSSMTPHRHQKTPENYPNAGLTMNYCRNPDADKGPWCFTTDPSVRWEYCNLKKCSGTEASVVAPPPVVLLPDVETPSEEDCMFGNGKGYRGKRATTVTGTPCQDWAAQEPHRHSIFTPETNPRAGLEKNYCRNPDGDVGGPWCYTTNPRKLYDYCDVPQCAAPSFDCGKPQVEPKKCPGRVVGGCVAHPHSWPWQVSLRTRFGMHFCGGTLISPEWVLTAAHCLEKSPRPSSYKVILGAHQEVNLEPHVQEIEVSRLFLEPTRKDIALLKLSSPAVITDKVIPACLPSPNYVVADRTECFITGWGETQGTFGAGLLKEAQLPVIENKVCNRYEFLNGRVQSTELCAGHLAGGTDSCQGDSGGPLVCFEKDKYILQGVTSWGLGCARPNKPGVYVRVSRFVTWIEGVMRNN

human plasmin [2] = biological target: T1, human plasmin; assay: preliminary plasmin inhibition test; measured Ki used as KD
human plasmin [3] = biological target: T1, human plasmin; assay: inhibition of plasmin by soluble protein; measured Ki used as KD
human plasmin [4] = biological target: T1, human plasmin; assay: as above; remark: listed apart in the source
Thrombin = assay: display phage binding to immobilised protease
Trypsin [5] = biological target: T2, Trypsin; assay: display phage binding to immobilised protease
T2 construct: also called trypsin-agarose beads
T2 sequence (P00760 24-246): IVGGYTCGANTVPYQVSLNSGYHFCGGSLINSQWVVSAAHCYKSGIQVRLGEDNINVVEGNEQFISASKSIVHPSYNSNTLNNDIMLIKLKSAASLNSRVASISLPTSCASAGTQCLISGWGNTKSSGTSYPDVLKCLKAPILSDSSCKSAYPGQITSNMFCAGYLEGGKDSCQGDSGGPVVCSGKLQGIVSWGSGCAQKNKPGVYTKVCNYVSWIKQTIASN

human plasmin [6] = biological target: T1, human plasmin; assay: display phage binding to immobilised protease
Kallikrein = assay: display phage binding to immobilised protease
Sequence of Kallikrein (P03952 20-390, chain 1 of 2): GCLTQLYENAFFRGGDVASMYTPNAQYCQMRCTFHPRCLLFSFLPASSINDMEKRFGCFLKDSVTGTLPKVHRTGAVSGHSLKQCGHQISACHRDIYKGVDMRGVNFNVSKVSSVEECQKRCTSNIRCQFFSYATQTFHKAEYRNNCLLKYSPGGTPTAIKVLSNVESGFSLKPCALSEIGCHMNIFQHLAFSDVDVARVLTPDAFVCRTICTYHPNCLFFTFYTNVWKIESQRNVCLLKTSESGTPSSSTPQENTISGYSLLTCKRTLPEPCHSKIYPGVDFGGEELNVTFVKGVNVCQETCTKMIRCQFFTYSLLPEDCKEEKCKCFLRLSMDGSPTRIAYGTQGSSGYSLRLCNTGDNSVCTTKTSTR
Sequence of Kallikrein (P03952 391-638, chain 2 of 2): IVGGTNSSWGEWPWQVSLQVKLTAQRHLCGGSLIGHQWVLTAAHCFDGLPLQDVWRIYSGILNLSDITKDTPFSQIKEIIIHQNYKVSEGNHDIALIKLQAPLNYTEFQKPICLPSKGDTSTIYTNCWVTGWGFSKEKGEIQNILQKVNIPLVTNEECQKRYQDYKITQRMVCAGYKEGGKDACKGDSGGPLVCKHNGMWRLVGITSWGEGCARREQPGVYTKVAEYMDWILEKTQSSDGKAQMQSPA

human plasmin [7] = biological target: T1, human plasmin; assay: display phage binding to protease beads
Trypsin [8] = biological target: T2, Trypsin; assay: display phage binding to immobilised trypsin, 2 washes
human plasmin [9] = biological target: T1, human plasmin; assay: inhibition of plasmin hydrolysis of a fluorogenic substrate, tight-binding fit; measured Ki used as KD

Binder	Phage Binding (relative to BPTI phage) (human plasmin [1])	Kd (human plasmin [2])	also measured
B1	2.6 fold of BPTI phage	–	–
B2	2.5 fold of BPTI phage	–	–
B3	0.22 fold of BPTI phage	–	–
B4	0.64 fold of BPTI phage	–	–
B5	0.48 fold of BPTI phage	–	–
B6	–	> 4 nM	–
B7	0.38 fold of BPTI phage	–	–
B8	3.2 fold of BPTI phage	–	Kd (human plasmin [3]): 0.088 nM; Kd (human plasmin [4]): 0.088 nM
B9	–	> 4 nM	–
B10	–	–	relative binding (LACI-K1 phage = unit) (Thrombin): 0.7 fold of LACI-K1 phage; relative binding (LACI-K1 phage = unit) (Trypsin [5]): 4.5 fold of LACI-K1 phage; relative binding (LACI-K1 phage = unit) (human plasmin [6]): 52 fold of LACI-K1 phage; relative binding (LACI-K1 phage = unit) (Kallikrein): 0.9 fold of LACI-K1 phage; fold binding to plasmin beads over other protease targets (human plasmin [7]): ≥ 50 fold; relative binding (LACI-K1 phage = unit) (Trypsin [8]): 0.5 fold of LACI-K1 phage
B11	2 fold of BPTI phage	> 2 nM	–
B12	0.09 fold of BPTI phage	–	–
B13	0.25 fold of BPTI phage	–	–
B14	–	~0.5 nM	–
B15	0.83 fold of BPTI phage	–	–
B16	–	~0.8 nM	–
B17	1.25 fold of BPTI phage	~0.5 nM	–
B18	–	–	Kd (human plasmin [9]): 2 nM
